# What was measured:
# [1] = biological target: F protein of RSV type B strain 18537 (on the virus in the neutralization assay) (respiratory syncytial virus type B, strain 18537) (UniProt P13843); experiment: cell-based or functional assay
# [2] = biological target: F protein of RSV A2 (on the virus in the neutralization assay) (respiratory syncytial virus, A2 strain) (UniProt P03420); experiment: cell-based or functional assay
substance,measurement,setting,value
D25 (antibody),"IC50 of each RSV neutralizing antibody, 18537",[1],0.167 µg/mL
same,"IC50 of each RSV neutralizing antibody, RSV A2",[2],0.0222 µg/mL

# Source: patent US20240409621A1
